Legend:
[1] = biological target: T1, Plasmodium falciparum lactate dehydrogenase (PfLDH) (Plasmodium falciparum, UniProt Q27743 1-316); experiment: APTEC plate capture assay; higher signal than aptamer alone; 2x PBS binding buffer (recombinant PfLDH), 1 h, streptavidin plate coated with DNA, PBST (0.1% Tween-20) washes, absorbance 570 nm; blood: 1:1 with PBS 0.5% Triton X-100; pH and temperature not stated; settings: protein: recombinant, tags: His (HisTrap purified), chain copies: 4
[2] = biological target: T1, Plasmodium falciparum lactate …; experiment: APTEC plate capture assay; 2x PBS binding buffer (recombinant PfLDH), 1 h, streptavidin plate coated with DNA, PBST (0.1% Tween-20) washes, absorbance 570 nm; blood: 1:1 with PBS 0.5% Triton X-100; pH and temperature not stated; settings: protein: recombinant, tags: His (HisTrap purified), chain copies: 4
[3] = biological target: T1, Plasmodium falciparum lactate …; experiment: APTEC plate capture assay (enzyme activity of captured PfLDH), logistic fit; 2x PBS binding buffer (recombinant PfLDH), 1 h, streptavidin plate coated with DNA, PBST (0.1% Tween-20) washes, absorbance 570 nm; blood: 1:1 with PBS 0.5% Triton X-100; pH and temperature not stated; settings: protein: recombinant; tags: His (HisTrap purified); chain copies: 4; label: 5' biotin; single strand

T1 sequence (Q27743 whole entry): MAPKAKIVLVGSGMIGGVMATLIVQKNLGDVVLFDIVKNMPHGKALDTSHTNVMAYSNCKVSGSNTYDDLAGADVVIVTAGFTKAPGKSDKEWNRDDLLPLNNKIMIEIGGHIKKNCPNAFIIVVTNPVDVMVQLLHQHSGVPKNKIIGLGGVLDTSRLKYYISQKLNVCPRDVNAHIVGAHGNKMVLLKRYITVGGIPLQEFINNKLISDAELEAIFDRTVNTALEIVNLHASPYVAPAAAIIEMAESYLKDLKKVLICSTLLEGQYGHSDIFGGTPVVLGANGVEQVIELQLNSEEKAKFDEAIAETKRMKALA

B1: aptamer with double-stranded spacer (C2a/C2b) (mixed)
DNA 1: CTGGGCGGTAGAACCATAGTGACCCAGCCGTCTACTTTGGGGCCGGGCGCGCCCCGGTT
DNA 2: TTCCGGGGCGCGCCCGGCCCCA
Q: Does B1 bind ([1]; label: 3' biotin on C2a, 20 bp spacer duplex, 5' aptamer overhang)?
A: Result: binds

B2: aptamer with single-stranded spacer (C2a) (structured_DNA)
DNA: B1 DNA 1
Q: Does B2 bind ([1]; label: 3' biotin, single strand)?
A: Result: binds

B3: aptamer square-based pyramid (mixed)
DNA 1: TTATGTAACCGTGTCACTCCAGGTGTACTTCCTAAAATCGCGCGACCAG
DNA 2: TTCACGGTTACATTCTGTGTTGGCACGGCGTCGTCCGGGTGGCGGTT
DNA 3: TTCACCTGGAGTGTAACCGCCACCCGGACGTCGTTCGTCAAATAGTG
DNA 4: TTTTTTAGGAAGTTCACTATTTGACGAACGTGCTATGCCGCGCGCCT
DNA 5: CTGGGCGGTAGAACCATAGTGACCCAGCCGTCTACTTCGCCGTGCCAACACAGTCTGGTCGCGCGTAGGCGCGCGGCATAGC
Q: B3 was tested. Which Kd ([2]; label: 5' biotin on P1a-P1d, square-based pyramid of 5 strands) did it give?
A: The Kd was 5.99 ± 0.64 nM.

Q: Which Kd [3] does the source give for CTGGGCGGTAGAACCATAGTGACCCAGCCGTCTAC (structured_DNA) [PfLDH aptamer alone (Apt)] here?
A: The Kd was 12.7 ± 0.71 nM.

B4: aptamer-tetrahedron 1 (mixed)
DNA 1: TTTTGCGGCTGGAGCCATGTCATCAGGGGCACGTCTCTAGGACGCGGCCGGGTCT
DNA 2: TTCATGGCTCCAGCCGCAATGACGGGACCGTGTGCCTGAGC
DNA 3: TTGAGACGTGCCCCTGATGTGCTCAGGCACTGCAGGGCAAA
DNA 4: CTGGGCGGTAGAACCATAGTGACCCAGCCGTCTACTTCGGTCCCGTCTAGACCCGGCCGCGTCCTTTTTGCCCTGC
Q: How did the Kd ([2]; label: 5' biotin on Ta, T1b, T1c, tetrahedron of 4 strands, height 2.65 nm) turn out when B4 was run?
A: Its Kd is 1.22 ± 0.13 nM.

B5: aptamer-tetrahedron 3 (mixed)
DNA 1: B4 DNA 1
DNA 2: TTCATGGCTCCAGCCGCAATTGATCATTGAGTGTCGGTGGCGATGTCTCCCCGATAAAGCGTATGTTATAAGTCT
DNA 3: TTGAGACGTGCCCCTGATGTAGACTTATAACATACGCTTTATCGGGGTCCGGAGCCATCACACCTGGATCAGGAC
DNA 4: CTGGGCGGTAGAACCATAGTGACCCAGCCGTCTACTTGACATCGCCACCGACACTCAATGATCATAGACCCGGCCGCGTCCTTGTCCTGATCCAGGTGTGATGGCTCCGG
Q: B5 was tested. Which Kd ([2]; label: 5' biotin on Ta, T3b, T3c, tetrahedron of 4 strands, height 10.55 nm) did it give?
A: The Kd was 1.61 ± 0.1 nM.

B6: aptamer-tetrahedron 2 (mixed)
DNA 1: B4 DNA 1
DNA 2: TTCATGGCTCCAGCCGCAATTATCTAGCGATCTCACCTCGTCAAGGGTAAGCCCG
DNA 3: TTGAGACGTGCCCCTGATGTCGGGCTTACCCTTGACGTGTGGTAATTGTTGTGTA
DNA 4: CTGGGCGGTAGAACCATAGTGACCCAGCCGTCTACTTGGTGAGATCGCTAGATATAGACCCGGCCGCGTCCTTTACACAACAATTACCAC
Q: With B6 as the binder, how does the Kd ([2]; label: 5' biotin on Ta, T2b, T2c, tetrahedron of 4 strands, height 6.72 nm) read?
A: The Kd was 2.09 ± 0.15 nM.

B7: aptamer pentagon-based pyramid (mixed)
DNA 1: TTCGGCCGATCTGGCATAGGCTTCCCCAACGTTATCTCGCGTGGCGTACGG
DNA 2: TTGATCGGCCGTTCCGCGCGTCCTGCCCTAGACGCCCCTGGGCCC
DNA 3: TTGCCTATGCCTGGGCCCAGGGGCGTCTTGGAGTCAACAGGTCGG
DNA 4: TTCGTTGGGGATCCGACCTGTTGACTCCTCCCGTCGACCAAAGAT
DNA 5: TTCGCGAGATATATCTTTGGTCGACGGGTCTCAGCCCTGACCCCA
DNA 6: CTGGGCGGTAGAACCATAGTGACCCAGCCGTCTACTTGGGCAGGACGCGCGGATCCGTACGCCTTGGGGTCAGGGCTGAG
Q: With B7 as the binder, how does the Kd ([2]; label: 5' biotin on P2a-P2e, pentagon-based pyramid of 6 strands) read?
A: Its Kd is 14.8 ± 0.8 nM.

— publication PMC6099927, “Aptamer Display on Diverse DNA Polyhedron Supports”
